Results reported in the supplement of paper PMC9112550, “Optimization of the antimicrobial peptide Bac7 by deep mutational scanning” (BMC Biology, 2022).

The sequences below were run on Escherichia coli TOP10 (assay: shrunken log2 fold change of peptide-encoding DNA abundance (4.5 h post-induction vs induction); higher = less antimicrobial activity (less host growth inhibition)). Details: time post-induction: 4.5 h; library: site-saturation at positions 5, 18, 19, 20.
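Note: peptides expressed intracellularly from a pBAD plasmid library in pooled LB shake-flask culture, induced with 0.3% L-arabinose, DNA abundance read by NGS, three biological replicates, DESeq2 with apeglm shrinkage.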

| Sequence | shrunken log2 fold change |
| --- | --- |
| RRIRNRPPRLPRPRPRPCFGPRP | 0.0347 |
| RRIRGRPPRLPRPRPRPTYIPRP | 0.111 |
| RRIRLRPPRLPRPRPRPEGEPRP | 0.624 |
| RRIRGRPPRLPRPRPRPRRFPRP | 0.402 |
| RRIRCRPPRLPRPRPRPPCAPRP | 0.354 |
| RRIRFRPPRLPRPRPRPDGTPRP | -0.256 |
| RRIRRRPPRLPRPRPRPPKLPRP | 0.0716 |
| RRIRFRPPRLPRPRPRPFDQPRP | -0.291 |
| RRIRTRPPRLPRPRPRPITGPRP | 0.00283 |
| RRIRHRPPRLPRPRPRPIAEPRP | -0.103 |
| RRIRHRPPRLPRPRPRPGYLPRP | -0.243 |
| RRIRNRPPRLPRPRPRPGMEPRP | -0.0302 |
| RRIRWRPPRLPRPRPRPTIIPRP | -0.348 |
| RRIRFRPPRLPRPRPRPKFDPRP | -0.0676 |
| RRIRNRPPRLPRPRPRPNKEPRP | -0.0761 |
| RRIRYRPPRLPRPRPRPCDWPRP | -0.0122 |
| RRIRYRPPRLPRPRPRPKQGPRP | 0.0737 |
| RRIRSRPPRLPRPRPRPNPEPRP | 0.0679 |
| RRIRLRPPRLPRPRPRPQDWPRP | -0.104 |
| RRIRSRPPRLPRPRPRPEYTPRP | -0.0105 |
| RRIRCRPPRLPRPRPRPLQPPRP | -0.0133 |
| RRIRQRPPRLPRPRPRPIYGPRP | -0.00674 |
| RRIRPRPPRLPRPRPRPVIKPRP | -0.215 |
| RRIRMRPPRLPRPRPRPFLEPRP | -0.088 |
| RRIRERPPRLPRPRPRPHSDPRP | -0.0192 |

| Sequence | shrunken log2 fold change |
| --- | --- |
| RRIRPRPPRLPRPRPRPKVIPRP | -0.172 |
| RRIRQRPPRLPRPRPRPVDEPRP | -0.249 |
| RRIRSRPPRLPRPRPRPMNSPRP | -0.776 |
| RRIRLRPPRLPRPRPRPWLWPRP | -0.106 |
| RRIRYRPPRLPRPRPRPHEHPRP | -0.0681 |
| RRIRARPPRLPRPRPRPTSHPRP | -0.016 |
| RRIRNRPPRLPRPRPRPQYHPRP | -0.767 |
| RRIRTRPPRLPRPRPRPRGWPRP | 0.897 |
| RRIRDRPPRLPRPRPRPYNAPRP | -0.0556 |
| RRIRNRPPRLPRPRPRPIRVPRP | -0.0394 |
| RRIRVRPPRLPRPRPRPQNPPRP | -0.396 |
| RRIRWRPPRLPRPRPRPLNQPRP | -0.0739 |
| RRIRSRPPRLPRPRPRPSYVPRP | -0.735 |
| RRIRCRPPRLPRPRPRPGFNPRP | -0.391 |
| RRIRERPPRLPRPRPRPIFKPRP | 0.138 |
| RRIRKRPPRLPRPRPRPRCIPRP | -0.187 |
| RRIRSRPPRLPRPRPRPWQHPRP | 0.14 |
| RRIRCRPPRLPRPRPRPEVAPRP | 0.293 |
| RRIRGRPPRLPRPRPRPQEYPRP | -0.00348 |
| RRIRYRPPRLPRPRPRPDFYPRP | -1.15 |
| RRIRVRPPRLPRPRPRPTPQPRP | 0.279 |
| RRIRNRPPRLPRPRPRPECSPRP | 0.079 |
| RRIRTRPPRLPRPRPRPDPVPRP | -0.216 |
| RRIRCRPPRLPRPRPRPMKCPRP | -0.173 |
| RRIRCRPPRLPRPRPRPKYAPRP | -0.0494 |

| Sequence | shrunken log2 fold change |
| --- | --- |
| RRIRPRPPRLPRPRPRPKVAPRP | 0.02 |
| RRIRTRPPRLPRPRPRPVYAPRP | -0.249 |
| RRIRIRPPRLPRPRPRPCFFPRP | -0.503 |
| RRIRERPPRLPRPRPRPPMKPRP | -0.418 |
| RRIRLRPPRLPRPRPRPNEFPRP | -0.168 |
| RRIRSRPPRLPRPRPRPWHTPRP | -0.348 |
| RRIRFRPPRLPRPRPRPQREPRP | 0.296 |
| RRIRPRPPRLPRPRPRPPRKPRP | 0.79 |
| RRIRARPPRLPRPRPRPVILPRP | -0.0803 |
| RRIRRRPPRLPRPRPRPAPKPRP | 0.905 |
| RRIRWRPPRLPRPRPRPKEVPRP | 0.0717 |
| RRIRWRPPRLPRPRPRPHWLPRP | 0.243 |
| RRIRGRPPRLPRPRPRPFAQPRP | 0.456 |
| RRIRMRPPRLPRPRPRPLYGPRP | -0.281 |
| RRIRYRPPRLPRPRPRPANNPRP | -0.45 |
| RRIRFRPPRLPRPRPRPLDVPRP | -0.153 |
| RRIRWRPPRLPRPRPRPHPEPRP | 0.275 |
| RRIRNRPPRLPRPRPRPIEHPRP | -0.307 |
| RRIRDRPPRLPRPRPRPRTGPRP | 0.0132 |
| RRIRSRPPRLPRPRPRPYCMPRP | -0.881 |
| RRIRLRPPRLPRPRPRPQSWPRP | -0.0792 |
| RRIRTRPPRLPRPRPRPCYPPRP | -0.425 |
| RRIRCRPPRLPRPRPRPRKEPRP | 0.239 |
| RRIRCRPPRLPRPRPRPLIRPRP | -0.109 |
| RRIRVRPPRLPRPRPRPDVRPRP | -0.106 |

| Sequence | shrunken log2 fold change |
| --- | --- |
| RRIRSRPPRLPRPRPRPEPYPRP | 0.0691 |
| RRIRQRPPRLPRPRPRPSMYPRP | -1.39 |
| RRIRIRPPRLPRPRPRPMAVPRP | 0.142 |
| RRIRARPPRLPRPRPRPKEIPRP | 0.711 |
| RRIRIRPPRLPRPRPRPKECPRP | 0.00902 |
| RRIRYRPPRLPRPRPRPAHQPRP | 0.126 |
| RRIRYRPPRLPRPRPRPLGMPRP | -0.807 |
| RRIRWRPPRLPRPRPRPDYIPRP | -0.00749 |
| RRIRLRPPRLPRPRPRPHHEPRP | 0.0418 |
| RRIRCRPPRLPRPRPRPRWRPRP | 0.442 |
| RRIRVRPPRLPRPRPRPDSGPRP | -0.0439 |
| RRIRMRPPRLPRPRPRPMSNPRP | 0.0851 |
| RRIRVRPPRLPRPRPRPTSVPRP | -0.0603 |
| RRIRRRPPRLPRPRPRPTKRPRP | 0.145 |
| RRIRYRPPRLPRPRPRPKFGPRP | -0.000463 |
| RRIRWRPPRLPRPRPRPGDHPRP | -0.0565 |
| RRIRQRPPRLPRPRPRPIFYPRP | -0.418 |
| RRIRFRPPRLPRPRPRPGFDPRP | 0.0857 |
| RRIRNRPPRLPRPRPRPTNSPRP | -0.279 |
| RRIRDRPPRLPRPRPRPYTHPRP | -0.267 |
| RRIRPRPPRLPRPRPRPAFVPRP | 0.149 |
| RRIRYRPPRLPRPRPRPACNPRP | -0.238 |
| RRIRSRPPRLPRPRPRPIPVPRP | -0.208 |
| RRIRQRPPRLPRPRPRPAPTPRP | 0.709 |
| RRIRSRPPRLPRPRPRPALSPRP | 0.497 |

| Sequence | shrunken log2 fold change |
| --- | --- |
| RRIRGRPPRLPRPRPRPFEEPRP | 0.231 |
| RRIRIRPPRLPRPRPRPYYMPRP | -0.983 |
| RRIRYRPPRLPRPRPRPVADPRP | -0.127 |
| RRIRARPPRLPRPRPRPDHDPRP | 0.592 |
| RRIRERPPRLPRPRPRPRNGPRP | 0.0197 |
| RRIRPRPPRLPRPRPRPITGPRP | -0.189 |
| RRIRHRPPRLPRPRPRPNIWPRP | 0.0229 |
| RRIRVRPPRLPRPRPRPKVWPRP | 0.409 |
| RRIRLRPPRLPRPRPRPNKYPRP | -0.742 |
| RRIRHRPPRLPRPRPRPIMMPRP | 0.013 |
| RRIRMRPPRLPRPRPRPGKNPRP | 0.417 |
| RRIRYRPPRLPRPRPRPLSSPRP | -0.214 |
| RRIRRRPPRLPRPRPRPCYLPRP | -0.499 |
| RRIRDRPPRLPRPRPRPVLQPRP | 0.0891 |
| RRIRVRPPRLPRPRPRPPVDPRP | 0.0819 |
| RRIRDRPPRLPRPRPRPMQKPRP | 0.0229 |
| RRIRYRPPRLPRPRPRPIPWPRP | -0.545 |
| RRIRWRPPRLPRPRPRPTFPPRP | 0.197 |
| RRIRARPPRLPRPRPRPLLKPRP | 0.0989 |
| RRIRFRPPRLPRPRPRPCKMPRP | 0.111 |
| RRIRYRPPRLPRPRPRPGMMPRP | -0.426 |
| RRIRVRPPRLPRPRPRPEAVPRP | 0.112 |
| RRIRVRPPRLPRPRPRPTQFPRP | 0.203 |
| RRIRTRPPRLPRPRPRPTEKPRP | 0.015 |
| RRIRVRPPRLPRPRPRPSMIPRP | -0.375 |

| Sequence | shrunken log2 fold change |
| --- | --- |
| RRIRKRPPRLPRPRPRPCQAPRP | 0.157 |
| RRIRQRPPRLPRPRPRPYKIPRP | -0.568 |
| RRIRHRPPRLPRPRPRPSRWPRP | 0.102 |
| RRIRLRPPRLPRPRPRPVKNPRP | -0.176 |
| RRIRTRPPRLPRPRPRPPKIPRP | -0.112 |
| RRIRARPPRLPRPRPRPNTLPRP | -0.202 |
| RRIRPRPPRLPRPRPRPIAQPRP | 0.487 |
| RRIRIRPPRLPRPRPRPYPFPRP | -0.38 |
| RRIRQRPPRLPRPRPRPVFFPRP | 0.0102 |
| RRIRTRPPRLPRPRPRPYLRPRP | -0.163 |
| RRIRPRPPRLPRPRPRPMCGPRP | -0.252 |
| RRIRPRPPRLPRPRPRPSDFPRP | -0.42 |
| RRIRWRPPRLPRPRPRPVRHPRP | 0.245 |
| RRIRGRPPRLPRPRPRPLPKPRP | 0.943 |
| RRIRLRPPRLPRPRPRPDTEPRP | -0.0195 |
| RRIRSRPPRLPRPRPRPEVIPRP | 0.18 |
| RRIRYRPPRLPRPRPRPQYEPRP | -0.565 |
| RRIRMRPPRLPRPRPRPMHFPRP | -0.0157 |
| RRIRYRPPRLPRPRPRPQMFPRP | -0.0885 |
| RRIRGRPPRLPRPRPRPNTGPRP | 0.0864 |
| RRIRHRPPRLPRPRPRPRSNPRP | -0.253 |
| RRIRMRPPRLPRPRPRPWIRPRP | -0.167 |
| RRIRLRPPRLPRPRPRPYPWPRP | -0.141 |
| RRIRFRPPRLPRPRPRPSQPPRP | -0.0776 |
| RRIRQRPPRLPRPRPRPPAMPRP | -0.0312 |
